This passage reports protein production results from a protein production outcome set (Wang et al. 2014).

This data set can be described thus: label from the status in PepcDB records.
As to “AQSDGWSPKDHNLIKSVREDGRFLSSYGVVHAMLRNTEPRYAFHRDFSPKEFRKWQKGLRHAMEEIMKFPQIKNSPAPVCIKREQREGYRLEKWEFYPLPKCVSTFLVLIPDNINKPVPAILCIPGSGGNKEGLAGEPGIAPKLNDRYKDPKLTQALNFVKEGYIAVAVDNPAAGEASDLERYTLGSNYDYDVVSRYLLELGWSYLGYASYLDMQVLNWMKTQKHIRKDRIVVSGFSLGTEPMMVLGTLDTSIYAFVYNDFLCQTQERAEVMTMPDKNGRRPFPNSIRHLIPDFWKNFNFPDIVAALAPRPIILTEGGLDRDLDLVRKAYAIVGTPDNVKIYHYKKFSDPDTRKNVEYLPEGLDRNEYFRMVNVDGPNHYFKSELVVPWLRKLLEER”, the protein production entry is on record as “not failed”.

On to “ARQVTPGQVMVASTVGKLSALLAADLSDEQAQRLGLDTLLPLRESDGPTLFCFHPASGFAWQFSVLARYLSPRWSITGIQSPRPQGPMASAASLDEVCEHHLQTLLAQQPHGPYYLFGYSLGGTLAQGIAARLRQRGEAVAFLGLLDTWPPETQNWAEKEANGLDPEVLAEIDREREAFLAAQQGQASGELFSAIEGNYADAVRLLTTAHSAKFDGKATLFVAEKTRQEGMDPQVVWGPWVGELEVFSQNCAHVDIISPQAFEAIGPVVREILG”, for which the protein production result is recorded as “not failed”.

For “ASIVGSWVEPVPGLEGQVQGIKMEEGGVASSVNMATLVYESWKQEGTKLILTGKSIGNGQTIEFVDTMDIKRLTADSLVLDNQGMEIRYAKQK”, the protein production result is reported as “not failed”.

With “ASLLARYPPEKLFQAERNFNAAQDLDVSLLEGDLVGVIKKKDPMGSQNRWLIDNGVTKGFVYSSFLKPYNPRRSHSDAS”, the protein production entry was “not failed”.

With “ATFFIKMNQKTVPEFKNKHLRLAISQAINKKGYVNSVLNDGSLPSNNFTGVGTADTPDGKDFARTIKSPLKFNPDLAKKNWREAQKELGKNKFTFTMNTQDTPASKIAAEYIKSQIESHLPGVTLKIKQMPFKQKTTLELANNYEASYSGWSPDYPDPTAFLQTMTKNNAQNNTDWSNKEYDQLLKDANSKLLRKLGERNTSLQKAEYILLHEAPVAPVYQ”, the protein production result is “failed”.

Regarding “ATPPISNLTKTASESISNLSEAGSIKKGERELKIGDRVLVGGTKAGVVRFLGETDFAKGEWCGVELDEPLGKNDGAVAGTRYFQCQPKYGLFAPVHKVTKIGFPSTTPAKAKANAVRRVMATTSASLKRSPSASSLSSMSSVASSVSSRPSRTGLLTET”, the protein production result was “not failed”.

As for “ATSYMTCSAYQKVQDSEISFPAGVEVQVLEKQESGWWYVRFGELEGWAPSHYLVLDENEQPDPSGKE”, the protein production result was “not failed”.

Take “CGGCGEDVVGDGAGVVALDRVFHVGCFVCSTCRAQLRGQHFYAVERRAYCEGCYVATLE”: the protein production entry is given as “not failed”.

On to “CTFKSVADEWVKTKTKLKPKTVQGNWRKLELYAFPKFGEIPVKSLTPIIVQEAFRPIARRGKLETVKRTIQLVNEIMRFAINSGLIQHNVLSGVG”, for which the protein production entry is recorded as “failed”.

As to “CVECRKPIGADSKEVHYKNRFWHDTCFRCAKCLHPLANETFVAKDNKILCNKCTTREDSPKCKGCFKAIVAGDQNVEYKGTVWHKDCF”, the protein production result was “not failed”.

With “DAPPAWLRCLAATYPVLAPLPNWGLSESRFRPVRAVANAGALPVVLTRVGREMPEIAATVEEFLAAAKDCGADVEVVDVPHGHHGFETIDLTDESRTAVRHALRTVL”, the protein production result is on record as “failed”.

Turning to “DDAGKTAIYWLGYDLPPEIPTIVILHTITGTPSSMRELVRDLHQHTGWRIALCVRRGHADLEFSVPRFNLFGSVSDLKQQLDYIQNHFPQSNLYGVGSSAGSGLLVRYLGEEADEAYFKAAFAFCPGYNTETGFEKVHPVYSQYMAKKLLKTFVYKYIDSWQHVENLEEVLSSKNLTEFHLRYYKLAGFKNYQEYSLATNPMHVFKNIKIPLMVLNSQDDPVCHIDNFEPYIPEIQKLSNIVVVTTKKGSHCAFYEGWTPQSWASRLMANYFLQHHQ”, the protein production entry is recorded as “failed”.

Regarding “DDDDDNGGSSVMNITGIYLEDAKSNVPDRLVDFARLGQLIRIEGEGFNGLKKVYINGYNCYFNPVFVSNKSFLVSVNSKVPTTEADENVRNTIRLVKDGGEYVYDFQIRAAAPSITKISNCMPNVGEPIIVYGSGLTEIAKVVFPGNVVVTEGIISDLDGEYFMVDMPAGVSEEGGSIFVEGSNGGAYSPAYFNYKKGLLLNFDGVGAQGAWGDSESMIQTTELESASIGEGNVSQGAYCRLPLERQLPVAAAKNRCAEVWTAGNGTDPDWLTLGVPAETPVAECAIQFEIYVPEPWSESGFLKICGQNGFNGGEWERDCYNYVPWLVDGKIVPFQTTGWQTVTVPFSEFYKSKASSGAWTTFADVTATRASASYANFGFYFENSDITLDKITGASSDKETEFLSKATSVKIYIDNWRVVPLTKPEYTDFPDEEEDAE”, the protein production entry was “not failed”.

In the case of “DDDLEVKEENGVWVLNDGNFDNFVADKDTVLLEFYAPWCGHCKQFAPEYEKIASTLKDNDPPIAVAKIDATSASMLASKFDVSGYPTIKILKKGQAVDYDGSRTQEEIVAKVREVSQPDWTPPPEVT”, the protein production entry is reported as “not failed”.

For the sequence “DELFNWFYIRSEINSKMSFYIATESDALVSILGFYACDFLIDSRIVPGLWTAMWFTLPQYRNGIGALLMKELVDTNSCSMWPRRIKHEFTNS”, the protein production entry is recorded as “failed”.

Take “DETIHLERGENLFEIHINKVTFSSEVLQASGDKEPVTFCTYAFYDFELQTTPVVRGLHPEYNFTSQYLVHVNDLFLQYIQKNTITLEVHQAYSTEYETIAACQLKFHEILEKSGRIFCTASLIGTKGDIPNFGTVEYWFRLRV”: the protein production entry is on record as “not failed”.

“DFNPEIFQLESYFKSKYHLKDIEIVSSRKDSDTSEIEKDLAHVAAAMIRKKIKENDKVGIAWGRTLSKVVEAMRPHPVSQVSFVPLAGGPSHINARYHVNTLVYEMSRRFQGSCTFINATLVQENANLAKGILTSKYFEGLMDNWEKLDVAIVGVGGKPKSNEQQWLDLLNQDDFQCLDEEAAVGEITCRFFNHSGDPVNQHLAKRTIGITLEQLQKVPNRIAVAHGNYKAAALLAVLKKGYINHLVTDFSTALNILRLDKDTFVDTIYQKS”: the protein production entry was “failed”.

“DGDIGQLSKTFNYMVSELKSRRNELIAVRDQIDERRRFSEAVLSGVTAGVAGIDDNGNITIINRSIETMFDIRSEHVIGHSLLSLSAEIDQVFQFARSLGRKNHREQVTLSVAGQERVCNVQITMEKDDG”: the protein production result is “failed”.

With “DGIVELKTVPFDQLVVYEQKLFPAERERFLRLWIKQPNSAAYAVVRDGQIVGYGVIRQSHTGLRIGPLNADNEQIAEQLLLALLAFRSDALVFLDVPDANLEAIKLVQRYGMKPVSEVARMYNKEIPNLLINRVFAVTSLEVG”, the protein production result is “failed”.

Take “DGQPVAMGDVGELVIGGVGLARYLDPVKDREKFSAELGWERAYRSGDHVRLCEDGLYFVGRIDDQVKIGGRRIELGEVEAHVAALPNVAQYAVVVRETAAGEKVLVAYVSPQVPDVDIDTSALDELPRAMVPRLVVLPEIPTTTSGKADKKALPWPLESAQVTGSDFTPTQQWLAQLWVDVLGVPVGDVD”: the protein production result was “failed”.

Take “DISEELDYERGRYLDAMIDNHKYTGKARAIIYGQPELALALAKVCFENGVNVKLIALGAKNKILEEALKEEIKSQREEVLVLDDTDFDTIEKYAKEFNVNLFIGNSDGRRMASRLGIEIIRVGFPIHDRV”: the protein production result is given as “failed”.

On to “DISKITDVAVMTVEGANDDISAPGQCIAALDLCTGLADSKKANHLEPGAGHYGIFAGRSWRDNIRPLVIDFMNTNSRKGKSLRPANKNSAA”, for which the protein production entry is reported as “failed”.

For the sequence “DKLYPCQCGKSFTHKSQRDRHMSMHLGLRPYGCGVCGKKFKMKHHLVGHMKIHTGIKPYECNICAKRFMWRDSFHRHVTSCTKSYEAAKAEQNTTEA”, the protein production result is “not failed”.

Regarding “DKMDGAPSRVLHIRKLPGEVTETEVIALGLPFGKVTNILMLKGKNQAFLELATEEAAITMVNYYSAVTPHLRNQPIYIQYSNHKELKT”, the protein production entry is “not failed”.

With “DLREVLDFMLKDEVSKLRKLLVKIKTKKIAEVEYENVVKALKLFKDNYEINEYLMDENTKEFLIKRNILFLNPVEEILKPQSYLVWNAIKRVLQNINDF”, the protein production result is recorded as “not failed”.

As for “DPGERLYDLNMPAYVKFNYMAEREDELSLIKGTKVIVMEKCSDGWWRGSYNGQVGWFPSNYVTEEGDSPLGDHVG”, the protein production result is listed as “not failed”.
